Residue numbers refer to the chain shown, from its start.
Tests used:
[1] = Competitive ELISA screening of hybridoma supernatants on E1-OVA (55), inhibitor MDA; type: binding; details: for E1-OVA (55) Binding, OD650 nm +MDA: hybridoma supernatant in the presence of 10 μg/mL MDA; for % Inhibition by 10 μg/mL of MDA: inhibition of mAb/E1-OVA (55) binding
Method: (§1) Competitive ELISA was used to assess the presence of anti-Ecstasy-class antibodies in animal sera, hybridoma supernatants, and monoclonal antibody (mAb) samples as well as to estimate the level of antibody cross reactivity to amphetamine (Amph) and methamphetamine (mAmph). Antisera and antibody samples were used at the dilution giving a response of about OD=1 at 650 nm (OD650 nm) in an indirect ELISA. Hybridoma supernatants were diluted 1:2 in PBS. (±)-MDMA, (±)-MDA, (±)-amphetamine, and (±)-methamphetamine were used as inhibitors (Cerilliant Corporation, Round Rock, TX). Microtiter ELISA plates were coated and blocked as described above for indirect ELISA. The inhibitors were serially diluted in PBS. 25 μL of the diluted inhibitor was mixed with 25 μL of fixed appropriate antiserum or antibody sample dilution. The mixture was incubated over the E1-OVA (55) solid phase for 1 h. The plates were washed as described above and the bound antibodies were detected with anti-rabbit or anti-mouse IgG HRP-conjugates and TMB substrate as described above.
(§2) The supernatants were screened in a competitive ELISA for the presence of anti-ecstasy compound monoclonal antibodies (mAbs) as follows. 25 μL of the hybridoma supernatant was mixed with equal volume of PBS alone or containing 20 μg/mL inhibitor (MDA or MDMA) were incubated for 1 h in the wells of E1-OVA (55) coated ELISA plates. The plates were washed and the presence of bound mAbs were detected using goat anti-mouse IgG (Fc)-HRP conjugate and TMB substrate as described above. The level of inhibition of mAb/E1-OVA (55) binding in the presence of the inhibitor was estimated using a Percent (%) Inhibition calculated by the below formula:
(§3) [formula] • where “OD650 nm w/o Inhibitor” is the binding response of the antibody sample diluted in PBS alone (with no inhibitor), and the “OD650 nm with Inhibitor” is the binding response of the same antibody sample in the presence of 10 μg/mL of inhibitor (i.e., MDA or MDMA).

[2] = Prototype EMIT ecstasy assay, cross-reactivity with amphetamine; type: biochemical; details: conjugate Compound 58; negative urine pool
[3] = system: E1-OVA (55); assay: ELISA binding of hybridoma supernatant to E1-OVA (55) coated plates, without inhibitor; details: hybridoma supernatant mixed with PBS alone
Method: All ELISA steps were performed at rt. Wells of a Nunc Maxi-Sorp™ flat-bottom ELISA plates (ThermoFisher Scientific, Waltham, MA) were coated with 50 μL E1-OVA (55), E2-OVA (65), and E3-OVA (72) at a concentration of 1 μg/mL in PBS for 1 h. The plates were flicked dried and remaining binding sites were blocked with 200 μL per well of blocking solution (0.5% casein, 0.05% (v/v) Tween 20 in PBS) for one hour. Plates were washed six times with MilliQ water containing 0.05% (v/v) Tween 20 on Biotek 405 LS plate washer equipped with microplate Biostacker 3 (Biotek, Winooski, VT). 50 μL of serially diluted antibody samples (serial dilutions of serum, hybridoma supernatant, or monoclonal antibodies in PBS) were added to each well and incubated for one hour. Unbound antibodies were removed by washing as described above, and 50 μL of secondary goat anti-rabbit IgG HRP or goat anti-mouse IgG (Fc)-HRP conjugate (ThermoFisher Scientific, USA), diluted 1:3,000 in the blocking solution was added to each well for detection bound rabbit or mouse antibody, respectively. Plates were incubated for one hour, washed and 100 μL of TMB substrate (Moss, Pasadena, MD) was added for 15 min to determine bound peroxidase. Optical density (OD) of the samples at 650 nm was measured using an ELISA plate reader (Molecular Devices LLC., San Jose, CA). The titer of each serum sample was designated as the maximum dilution that yielded at least twice the absorbance of the same dilution of the nonimmune control serum.
as §2
[formula] • where “OD650 nm w/o Inhibitor” is the binding response of the antibody sample diluted in PBS alone (with no inhibitor), and the “OD650 nm with Inhibitor” is the binding response of the same antibody sample in the presence of 10 μg/mL of inhibitor (i.e., MDA or MDMA). […]

[4] = Competitive ELISA screening of hybridoma supernatants on E1-OVA (55), inhibitor MDMA; type: binding; details: for E1-OVA (55) Binding, OD650 nm +MDMA: hybridoma supernatant in the presence of 10 μg/mL MDMA; for % Inhibition by 10 μg/mL of MDMA: inhibition of mAb/E1-OVA (55) binding
Method: as §1, §2, §3

[5] = Prototype EMIT ecstasy assay, cross-reactivity with methamphetamine; type: biochemical; details: conjugate Compound 58; negative urine pool
[6] = Competitive ELISA of purified antibodies on E1-OVA (55), amphetamine and methamphetamine cross reactivity; type: binding
Method: as §1
The anti-ecstasy class mAbs were purified from clarified and filtered hybridoma culture supernatants on a recombinant Protein A Sepharose Fast Flow (GE Life Sciences, Boston USA), dialyzed against PBS containing 0.02% sodium azide and stored at 4° C. The purified mAbs were tested for MDA and MDMA reactivity as well as amphetamine (Amph) and methamphetamine (mAmph) cross reactivity in a competitive assay.

B1: 178K 1F4 mAb: mouse monoclonal antibody raised against E1-KLH (56); IgG2b, κ; heavy chain SEQ ID NO 85, light chain SEQ ID NO 109 (antibody)
heavy: MNFGLSLIFLALILKGVQCEVQLVESGGDLVRPGGSLKLSCAASGFIFTNYVMSWVRQTPDKRLEWVATINSVGRYTYYTDSVKGRLTISRNNAKNTLYLQMNSLKSEDTAIYYCAGGNNLDFWGQGTTLTVSSAKTTPPSVYPLAPGCGDTTGSSVTLGCLVKGYFPESVTVTWNSGSLSSSVHTFPALLQSGLYTMSSSVTVPSSTWLSQTVTCSVAHPASSTTVDKKLEPSGPISTIKPCPPCKECHKCPAPNLEGGPSVFIFPPNIKDVLMISLTPKVTCVVVDVSEDDPDVQISWFVNNVEVHTAQTQTHREDYNSTIRVVSALPIQHQDWMSGKEFKCKVNNKDLPSPIERTISKIKGLVRAPQVYILPPPAEQLSRKDVSLTCLVVGFNPGDISVEWTSNGHTEENYKDTAPILDSDGSYFIYSKLNMKTSKWEKTDSFSCNVRHEGLKNNYLKKTISRSPGK
light: MRFSAQLLGLLVLWIPGSTADIVMTQAAFSNPVTLGTSASISCRSSKSLLHSNGITYLYWYLQKPGQSPQLLIYQMSNLASGVPDRFSSSGSGTDFTLRISRVEAEDVGVYYCGQDLELPYSFGGGTKLEIKRADAAPTVSIFPPSSEQLTSGGASVVCFLNNFYPKDINVKWKIDGSERQNGVLNSWTDQDSKDSTYSMSSTLTLTKDEYERHNSYTCEATHKTSTSPIVKSFNRNEC
E1-OVA (55) Binding, OD650 nm +MDA [1]: 0.254 OD650 nm
% Inhibition by 10 μg/mL of MDA [1]: 93%
Concentrations (μg/mL) of Structurally Related Compounds Equivalent to 500 ng/mL MDMA Cutoffs, (+/−) Amph [2]: 30 µg/mL
E1-OVA (55) Binding, OD650 nm w/o inhib [3]: 3.012 OD650 nm
E1-OVA (55) Binding, OD650 nm +MDMA [4]: 0.359 OD650 nm
% Inhibition by 10 μg/mL of MDMA [4]: 88%
Concentrations (μg/mL) of Structurally Related Compounds Equivalent to 500 ng/mL MDMA Cutoffs, (+/−) mAmph [5]: 30 µg/mL
cross reactivity in the presence of 1,000 ng/ml of Amph or mAmph [6]: do not show any significant cross reactivity

B2: 178K 1E11 mAb: mouse monoclonal antibody raised against E1-KLH (56); IgG2b, κ; heavy chain SEQ ID NO 183, light chain SEQ ID NO 185 (antibody)
heavy: MNFGLSLIFLALILKGVQCEVQLVESGGDFVKPGGSLKLSCAASGFTFSNYVMSWVRQTPDKRLEWVATINSGGRYTYYPDSVKGRFTISRDNAKNTLYLQMNSLKSDDTAIYYCSGGNYLDYWGQGTTLTVSSAKTTPPSVYPLAPGCGDTTGSSVTLGCLVKGYFPESVTVTWNSGSLSSSVHTFPALLQSGLYTMSSSVTVPSSTWLSQTVTCSVAHPASSTTVDKKLEPSGPISTIKPCPPCKECHKCPAPNLEGGPSVFIFPPNIKDVLMISLTPKVTCVVVDVSEDDPDVQISWFVNNVEVHTAQTQTHREDYNSTIRVVSALPIQHQDWMSGKEFKCKVNNKDLPSPIERTISKIKGLVRAPQVYILPPPAEQLSRKDVSLTCLVVGFNPGDISVEWTSNGHTEENYKDTAPILDSDGSYFIYSKLNMKTSKWEKTDSFSCNVRHEGLKNNYLKKTISRSPGK
light: B1 light with H51Q, S52R, Y59H, Q75R, D85E, S122T
E1-OVA (55) Binding, OD650 nm +MDA [1]: 0.316 OD650 nm
% Inhibition by 10 μg/mL of MDA [1]: 91%
E1-OVA (55) Binding, OD650 nm w/o inhib [3]: 3.390 OD650 nm
E1-OVA (55) Binding, OD650 nm +MDMA [4]: 0.301 OD650 nm
% Inhibition by 10 μg/mL of MDMA [4]: 91%
cross reactivity in the presence of 1,000 ng/ml of Amph or mAmph [6]: do not show any significant cross reactivity

B3: 178K 4E11 mAb: mouse monoclonal antibody raised against E1-KLH (56); IgG2b, κ; heavy chain SEQ ID NO 89, light chain SEQ ID NO 113 (antibody)
heavy: B2 heavy with F30L, K62M, D108E, S116A, Y120N
light: B1 light with H51Q, S52R, Q75R, S122T
E1-OVA (55) Binding, OD650 nm +MDA [1]: 0.091 OD650 nm
% Inhibition by 10 μg/mL of MDA [1]: 95%
Concentrations (μg/mL) of Structurally Related Compounds Equivalent to 500 ng/mL MDMA Cutoffs, (+/−) Amph [2]: 40 to 45 µg/mL
E1-OVA (55) Binding, OD650 nm w/o inhib [3]: 1.930 OD650 nm
E1-OVA (55) Binding, OD650 nm +MDMA [4]: 0.088 OD650 nm
% Inhibition by 10 μg/mL of MDMA [4]: 95%
Concentrations (μg/mL) of Structurally Related Compounds Equivalent to 500 ng/mL MDMA Cutoffs, (+/−) mAmph [5]: 50 to 60 µg/mL
cross reactivity in the presence of 1,000 ng/ml of Amph or mAmph [6]: do not show any significant cross reactivity

Source: US20260234121A1, “DERIVATIVES, IMMUNOGENS, AND ANTIBODIES AND USE OF THE SAME IN DETECTION OF ECSTASY-CLASS COMPOUNDS” (Siemens Healthcare Diagnostics Inc., priority 2023, published 2026)
